# Measurements: CN114989293A (UNIV CHONGQING MEDICAL; FENG YULIN, dated 2022)
# B1: 单抗12-CQTS077 (antibody, V domains shown)
# VH: EVQLVESGGGVVQPGGSLRLSCAASGFTFDDYAMNWVRQAPGKGLEWVSLISGDGDSPSYSGSVKGRFTISRDNSKNSLYLQMISLRTEDTALYYCARESPKLTGYFDYWGQGTLVTVSS
# VL: SYVLTQPPSVSVAPGQTAGITCGGDDIGSKNVHWYQQKPGQAPVLVVYDDHDRPSGIPERFSGSNSGNTATLTISRVEAGDEADYYCQVWDSSSDPYVFGTGTKVTVL
# B2: 单抗13-CQTS078 (antibody, V domains shown)
# VH: QVQLVQSGAEVKKPGASVRVSCKASGDTFSSHYIHWVRQAPGQGLEWMGIINPSGGSTSYAQKFQGRVTMTSDTSTSTVYLELSSLRSEDTAVYYCARDQAFIVATLGPDYWGQGILVTVSS
# VL: QTVVTQEPSFSVSPGGTVTLTCGLSSGSVSTSYYASWYQQTPGQAPRTLIYSTNTRSSGVPDRFSGSILGNKAALTITGAQADDESDYYCVLYMGSGIWVFGGGTKLTVL
# B3: 单抗14-CQTS079 (antibody, V domains shown)
# VH: EVQLVESGGGLIQPGGSLRLSCAASGFTVSSNYMSWVRQAPGKGLEWVSVIYSGDNTYYADSVKGRFTISRDNSKNTLYLQMNSLRAEDTAVYYCAKMLWLRGWFDPWGQGTLVTVSS
# VL: NFMLTQPHSVSESPGKTVTISCTRSSGSIASNYVQWYQQRPGSAPTTVIYEDNQRPSGVPDRFSGSIDSSSDSASLTISGLKTEDEADYYCQSYDTSNHWVFGGGTKLTVL
# B4: 单抗15-CQTS080 (antibody, V domains shown)
# VH: QVTLRESGPALVRPTQTLTLTCTFAGFSLRTHGMCVSWIRQPPGKALEWLARIDWDGDKYYSTSLKTRLTISKDTSKDQVVLTMTNMDPVDTATYYCARFLVGGFKAWFDPWGQGTLVTVSS
# VL: QSVLTQPPSVSAAPGQKVTISCSGSSSNIGNNYVSWYQQLPGIAPELLIYDNNKRPSGIPGRFSGSRSGTSATLDITGLQTGDEADYYCGTWDTSLNVWVFGGGTKLTVL
# B5: 单抗17-CQTS082 (antibody, V domains shown)
# VH: EVQLVQSGAEVKKPGESLKISCKGSGYSFSTYWIGWVRQMPGKGLEWMGIIYPYDSDTRYSPSFQGQVTISADKSISTAYLQWSSLKASDTAIYYCARQESGWSFDYWGQGTLVTVSS
# VL: DIQMTQSPSSLSASVGDRVTITCRASQNINKYLNWYQQKPGKAPKLLIYVASSLQSGVPSRFSGSGSGTDFTLTISSLQPEDFATYYCQQSYSTPRTFGQGTKVEIK
# B6: 单抗18-CQTS083 (antibody, V domains shown)
# VH: EVQLVESGGGLVQPGGSLRLSCAASGLTVSSNYMSWVRQAPGKGLEWVSLIYSGGSTYYADSVKGRFTISRHNSKNTLYLQMNSLRAEDTAVYYCARDLEERGAMDVWGQGTTVTVSS
# VL: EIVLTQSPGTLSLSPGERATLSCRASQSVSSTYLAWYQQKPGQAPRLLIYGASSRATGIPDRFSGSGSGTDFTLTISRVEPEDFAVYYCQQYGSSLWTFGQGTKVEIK
# B7: 单抗19-CQTS086 (antibody, V domains shown)
# VH: EVQLVESGGGLVQPGGSLRLSCAASGITVNSNYMSWVRQAPGKGLEWVSVIYNGVTTYYADSVKGRFTISRDISKNTVYLQMNSLRAEDTAVYYCARAGWLRGRFDPWGQGTLVIVSS
# VL: SYVLTQPPSVSVAPGQTASITCGGSNIGSKNVHWYQQKSGQAPVLVVYDDSDRPSGIPERFSGSNSGNTATLIINRVEAGDEADYYCQVWDSTTDLPHWVFGGGTKLTVL
# Target: 新冠病毒(SARS-CoV-2) S蛋白受体结合域 RBD (SARS-CoV-2, UniProt P0DTC2 319-541)
# Assay: ELISA, antigen coated at 2 μg/mL, 293T supernatant, anti-human IgG-ALP detection
row,Binder,binding result
1,B1,binds
2,B2,binds
3,B3,binds
4,B4,binds
5,B5,binds
6,B6,binds
7,B7,binds
